Substitutions are numbered along the chain they refer to. Blank lines part the entries; values can stand above or below the binder they belong to.
What was measured:
human FcRn [1] = target: T1, human FcRn (human); assay: Biacore SPR, pH7.0, against VH3/L(WT)-IgG1
T1 construct: also called soluble human FcRn complexed with β2-microglobulin
Method: (§1) Kinetic analyses between human FcRn and the antibody were carried out using Biacore T100 (GE Healthcare). A suitable amount of protein L (ACTIGEN) was immobilized onto a Sensor chip CM4 (GE healthcare) by the amine coupling method, and antibodies of interest were captured onto it. Next, diluted solutions of FcRn and the running buffer which is the blank were injected, and human FcRn was made to interact with the antibodies captured on the sensor chip. The running buffer used was 50 mmol/L sodium phosphate, 150 mmol/L NaCl, 0.05% (w/v) Tween 20, pH7.0, and the buffer was used for the FcRn dilutions. The sensor chip was regenerated using 10 mmol/L Glycine-HCl, pH1.5. All measurements were carried out at 25° C. Based on the association rate constant ka (1/Ms) and dissociation rate constant kd (1/s), which are kinetic parameters, calculated from the sensorgram obtained by the measurement, the KD (M) (affinity) of each antibody toward human FcRn was calculated. Each parameter was calculated using the Biacore T100 Evaluation Software (GE Healthcare).

human FcRn [2] = target: T2, human FcRn (human); assay: Biacore, pH 7.0
T2 construct: also called soluble human FcRn complexed with β2-microglobulin
Method: as §1

[3] = target: T3, soluble human IL-6 receptor (human, UniProt P08887 20-357); assay: SPR (Biacore T100), antibody captured via protein A/G on a CM5 chip, human IL-6 receptor injected for 3 min, 1.2 mM CaCl2, pH 7.4, 37 C
T3 construct: also called hsIL-6R
T3 sequence: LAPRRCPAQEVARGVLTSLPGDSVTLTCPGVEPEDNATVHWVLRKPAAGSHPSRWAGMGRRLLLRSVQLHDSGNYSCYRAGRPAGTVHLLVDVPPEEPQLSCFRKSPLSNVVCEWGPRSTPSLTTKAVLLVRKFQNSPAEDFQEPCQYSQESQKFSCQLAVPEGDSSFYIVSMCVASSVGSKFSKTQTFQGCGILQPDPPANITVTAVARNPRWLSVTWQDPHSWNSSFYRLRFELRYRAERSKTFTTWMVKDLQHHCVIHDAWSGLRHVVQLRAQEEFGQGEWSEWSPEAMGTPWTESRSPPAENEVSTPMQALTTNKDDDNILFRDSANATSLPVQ
Method: Interaction analyses were performed in a solution with a calcium ion concentration of 1.2 mM for the high calcium ion concentration condition or 3 μM for the low calcium ion concentration condition. A suitable amount of protein A/G (Invitrogen) was immobilized onto a Sensor chip CM5 (GE Healthcare) by the amine coupling method, and then antibodies of interest were captured onto the chips. Two types of buffers, 20 mM ACES, 150 mM NaCl, 0.05% (w/v) Tween 20, 1.2 mM CaCl₂ (pH 7.4) or 20 mM ACES, 150 mM NaCl, 0.05% (w/v) Tween 20, 3 μM CaCl₂ (pH 7.4), were used as the running buffer. […] All measurements were taken at 37° C.
Then, 10 mM glycine-HCl (pH 1.5) was injected at a flow rate of 30 μL/min for 30 seconds to regenerate the sensor chip.

[4] = target: T3, soluble human IL-6 receptor; assay: SPR (Biacore T100), about 300 RU of antibody captured via protein A/G on a CM5 chip, human IL-6 receptor injected for 3 min, pH 7.4, 1.2 mM CaCl2, 37 C
Method: The interaction for the antigen-antibody reaction was analyzed in solutions at pH 7.4 and pH 6.0, corresponding to a neutral pH and acidic pH conditions, respectively. An appropriate amount of Protein A/G (Invitrogen) was immobilized onto a Sensor chip CM5 (GE Healthcare) by an amino coupling method, and about 300 RU each of antibodies of interest were captured onto the chip. The two types of running buffers used were: 20 mM ACES/150 mM NaCl/0.05% (w/v) Tween20/1.2 mM CaCl₂ (pH 7.4); and 20 mM ACES/150 mM NaCl/0.05% (w/v) Tween20/1.2 mM CaCl₂ (pH 6.0). […] All measurements were carried out at 37° C.
Then, 10 mM glycine-HCl (pH 1.5) was injected at a flow rate of 30 μl/min for 30 seconds to regenerate the sensor chip.

human FcRn [5] = target: T4, human FcRn (human); assay: Biacore SPR, antibody captured on protein L, human FcRn as analyte, pH 7.0, 25 C
T4 construct: also called soluble human FcRn complexed with β2-microglobulin
Method: as §1

[6] = target: T5, mFcγRI extracellular domain with C-terminal His-tag (mouse, UniProt P26151 25-297); assay: Biacore SPR, antibody captured on Protein L, FcγR extracellular domain as analyte, 25 C
T5 construct: extracellular domain; also called mouse FcγRI
T5 sequence (looked up): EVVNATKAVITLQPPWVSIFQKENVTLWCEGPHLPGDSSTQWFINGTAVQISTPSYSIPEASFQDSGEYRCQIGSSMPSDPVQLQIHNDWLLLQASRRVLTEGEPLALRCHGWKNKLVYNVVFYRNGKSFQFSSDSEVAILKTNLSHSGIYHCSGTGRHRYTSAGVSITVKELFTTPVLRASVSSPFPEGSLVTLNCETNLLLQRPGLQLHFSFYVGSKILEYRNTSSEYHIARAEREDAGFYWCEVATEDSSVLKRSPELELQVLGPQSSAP
Method: (§2) Analysis of interaction between each of the altered antibodies and the extracellular domain of the Fcγ receptor prepared as mentioned above was carried out using Biacore T100 (GE Healthcare), Biacore T200 (GE Healthcare), Biacore A100, and Biacore 4000. HBS-EP+(GE Healthcare) was used for the running buffer, and the interactions were measured with a measurement temperature at 25° C. Chips produced by immobilizing Protein L (ACTIGEN or BioVision) by the amine coupling method to a Series S sensor Chip CM5 (GE Healthcare) or Series S sensor Chip CM4 (GE Healthcare) were used.
After capturing of each of the altered antibodies onto these sensor chips, the extracellular domain of the Fcγ receptor diluted with the running buffer was allowed to act on the chips to measure the binding level of each of the domains to each of the antibodies, and the binding levels were compared. However, since the amount of the bound extracellular domain of the Fcγ receptor depends on the amount of the antibodies captured on the sensorchip, the amount of the bound extracellular domain of the Fcγ receptor was divided by the respective amount of captured antibody to obtain corrected values, and these values were compared. Furthermore, by reaction with 10 mM glycine-HCl having pH of 1.5, antibodies captured onto the sensor chips were washed, and the regenerated sensor chips were used repeatedly.

[7] = target: T6, mFcγRII extracellular domain with C-terminal His-tag (mouse, UniProt P08101 30-210); assay: Biacore SPR, antibody captured on Protein L, FcγR extracellular domain as analyte, 25 C, 1:1 Langmuir fit
T6 construct: extracellular domain; also called mouse FcγRII
T6 sequence (looked up): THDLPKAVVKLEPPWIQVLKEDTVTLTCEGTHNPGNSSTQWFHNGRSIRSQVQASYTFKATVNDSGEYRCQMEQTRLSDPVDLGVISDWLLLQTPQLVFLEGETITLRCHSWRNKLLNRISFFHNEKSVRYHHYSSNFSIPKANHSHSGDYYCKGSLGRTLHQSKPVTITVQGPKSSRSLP
Method: as §2
(§3) The KD values of each of the altered antibodies for the extracellular domain of the Fcγ receptor were calculated according to the following kinetic analysis method.

[8] = target: T7, mFcγRIII extracellular domain with C-terminal His-tag (mouse, UniProt P08508 31-215); assay: as above
T7 construct: extracellular domain; also called mouse FcγRIII
T7 sequence (looked up): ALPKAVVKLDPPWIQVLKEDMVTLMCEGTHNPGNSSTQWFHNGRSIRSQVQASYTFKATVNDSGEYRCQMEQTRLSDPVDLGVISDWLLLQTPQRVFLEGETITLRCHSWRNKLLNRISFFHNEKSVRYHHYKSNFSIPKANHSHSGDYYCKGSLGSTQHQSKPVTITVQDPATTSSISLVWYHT
Method: as §2, §3

[9] = target: T5, mFcγRI extracellular domain with …; assay: as above
Method: as §2, §3

[10] = target: T8, mFcγRIV extracellular domain with C-terminal His-tag (mouse); assay: as above
T8 construct: extracellular domain; also called mouse FcγRIV
T8 sequence (A0A0B4J1G0 21-203, looked up): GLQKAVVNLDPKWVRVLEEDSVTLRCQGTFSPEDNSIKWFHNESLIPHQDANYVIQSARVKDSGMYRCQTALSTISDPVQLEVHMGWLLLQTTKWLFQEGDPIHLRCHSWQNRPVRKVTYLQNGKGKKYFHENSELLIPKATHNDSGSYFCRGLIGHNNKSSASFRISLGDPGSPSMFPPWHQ
Method: as §2, §3

mouse FcRn = target: T9, mouse FcRn (mouse, UniProt Q61559 22-297; P01887 21-119, limits assumed); assay: Biacore SPR, mouse FcRn, pH 7.0
T9 sequence (looked up) 1: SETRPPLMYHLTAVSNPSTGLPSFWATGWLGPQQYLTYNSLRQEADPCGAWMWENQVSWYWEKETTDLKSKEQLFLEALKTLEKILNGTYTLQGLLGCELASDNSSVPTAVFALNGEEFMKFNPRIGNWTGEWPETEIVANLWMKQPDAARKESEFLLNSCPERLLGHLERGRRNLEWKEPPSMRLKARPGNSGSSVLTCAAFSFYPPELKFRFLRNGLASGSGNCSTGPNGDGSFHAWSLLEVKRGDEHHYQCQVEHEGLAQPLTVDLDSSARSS
T9 sequence (looked up) 2: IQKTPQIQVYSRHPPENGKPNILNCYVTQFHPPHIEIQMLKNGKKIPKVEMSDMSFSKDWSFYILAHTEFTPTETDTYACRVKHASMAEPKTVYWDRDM

B1: IgG1-F157 (antibody)
heavy: QVQLQESGPGLVKPSETLSLTCAVSGHSISHDHAWSWVRQPPGEGLEWIGFISYSGITNYNPSLQGRVTISRDNSKNTLYLQMNSLRAEDTAVYYCARSLARTTAMDYWGEGTLVTVSSASTKGPSVFPLAPSSKSTSGGTAALGCLVKDYFPEPVTVSWNSGALTSGVHTFPAVLQSSGLYSLSSVVTVPSSSLGTQTYICNVNHKPSNTKVDKKVEPKSCDKTHTCPPCPAPELLGGPSVFLFPPKPKDTLMISRTAEVTCVVVDVSHEDPEVKFNWYVDGVEVHNAKTKPREEQYNSTYRVVSVLTPLHQDWLNGKEYKCKVSNKALPAPIEKTISKAKGQPREPQVYTLPPSRDELTKNQVSLTCLVKGFYPSDIAVEWESNGQPENNYKTTPPVLDSDGSFFLYSKLTVDKSRWQQGNVFSCSVLHEALHYHYTQKSLSLSP
light: not shown
notes: EU numbering; also called VH3/L(WT)-F157; copies: 2 + 2
fold affinity relative to IgG1 (human FcRn [1]): ~600 fold

B2: F1353 (antibody)
heavy: B1 heavy with L237R, S241K, M254Y, A259P, P310V, L430M, H435D, Y438T, Q440R, S442E
light: not shown
notes: EU numbering; copies: 2 + 2
Kd (human FcRn [2]): 0.133 µM

B3: Tocilizumab (antibody, human IgG1, kappa, V domains shown)
VH: QVQLQESGPGLVRPSQTLSLTCTVSGYSITSDHAWSWVRQPPGRGLEWIGYISYSGITTYNPSLKSRVTMLRDTSKNQFSLRLSSVTAADTAVYYCARSLARTTAMDYWGQGSLVTVSS
VL: DIQMTQSPSSLSASVGDRVTITCRASQDISSYLNWYQQKPGKAPKLLIYYTSRLHSGVPSRFSGSGSGTDFTFTISSLQPEDIATYYCQQGNTLPYTFGQGTKVEIKR
notes: also called anti-IL-6R antibody (tocilizumab); control antibody
binding result [3]: binds

B6: 6RC1IgG_010 (antibody, V domains shown)
VH: QVQLVQSGAEVKKPGSSVKVSCKASGGTFSSYAISWVRQAPGQGLEWMGGIIPIFGTANYAQKFQGRVTITADESTSTAYMELSSLRSEDTAVYYCARAAFLEWPIWGSEYFQHWGQGTLVTVSS
VL: DIQMTQSPSSLSASVGDRVTITCRASQSIEDDLAWYQQKPGKAPKLLIYHASSLQSGVPSRFSGSGSGTDFTLTISSLQPEDFATYYCQQRDSYPLTFGQGTKVEIKR
binding result [3]: binds

B9: Fv4-mIgG1 (antibody)
heavy: QVQLQESGPGLVKPSETLSLTCAVSGHSISHDHAWSWVRQPPGEGLEWIGFISYSGITNYNPSLQGRVTISRDNSKNTLYLQMNSLRAEDTAVYYCARSLARTTAMDYWGEGTLVTVSSAKTTPPSVYPLAPGSAAQTNSMVTLGCLVKGYFPEPVTVTWNSGSLSSGVHTFPAVLQSDLYTLSSSVTVPSSTWPSETVTCNVAHPASSTKVDKKIVPRDCGCKPCICTVPEVSSVFIFPPKPKDVLTITLTPKVTCVVVDISKDDPEVQFSWFVDDVEVHTAQTQPREEQFNSTFRSVSELPIMHQDWLNGKEFKCRVNSAAFPAPIEKTISKTKGRPKAPQVYTIPPPKEQMAKDKVSLTCMITDFFPEDITVEWQWNGQPAENYKNTQPIMDTDGSYFVYSKLNVQKSNWEAGNTFTCSVLHEGLHNHHTEKSLSHSPGK
light: DIQMTQSPSSLSASVGDSVTITCQASTDISSHLNWYQQKPGKAPELLIYYGSHLLSGVPSRFSGSGSGTDFTFTISSLEAEDAATYYCGQGNRLPYTFGQGTKVEIERADAAPTVSIFPPSSEQLTSGGASVVCFLNNFYPKDINVKWKIDGSERQNGVLNSWTDQDSKDSTYSMSSTLTLTKDEYERHNSYTCEATHKTSTSPIVKSFNRNEC
notes: VH3-mIgG1 with VL3-mCK; copies: 2 + 2
binding result [6]: no binding
Kd [7]: 0.57 µM
Kd [8]: 0.085 µM

B10: Fv4-mIgG2a (antibody)
heavy: QVQLQESGPGLVKPSETLSLTCAVSGHSISHDHAWSWVRQPPGEGLEWIGFISYSGITNYNPSLQGRVTISRDNSKNTLYLQMNSLRAEDTAVYYCARSLARTTAMDYWGEGTLVTVSSAKTTAPSVYPLAPVCGDTTGSSVTLGCLVKGYFPEPVTLTWNSGSLSSGVHTFPAVLQSDLYTLSSSVTVTSSTWPSQSITCNVAHPASSTKVDKKIEPRGPTIKPCPPCKCPAPNLLGGPSVFIFPPKIKDVLMISLSPIVTCVVVDVSEDDPDVQISWFVNNVEVHTAQTQTHREDYNSTLRVVSALPIQHQDWMSGKEFKCKVNNKDLPAPIERTISKPKGSVRAPQVYVLPPPEEEMTKKQVTLTCMVTDFMPEDIYVEWTNNGKTELNYKNTEPVLDSDGSYFMYSKLRVEKKNWVERNSYSCSVVHEGLHNHHTTKSFSRTPGK
light: B9 light
notes: VH3-mIgG2a with VL3-mCK; copies: 2 + 2
Kd [9]: 0.0039 µM
Kd [7]: 0.48 µM
Kd [8]: 0.045 µM
Kd [10]: 0.0032 µM

B12: Fv4-mFa30 (antibody, mouse IgG2a, kappa)
heavy: B10 heavy with S241D, M254Y, S258E, K328D, L330Y, H435K, N436F
light: B9 light
notes: VH3-mFa30 with VL3-mCK; copies: 2 + 2
Kd (mouse FcRn): 0.0035 µM
Kd [9]: 0.00099 µM
Kd [7]: 0.0081 µM
Kd [8]: 0.0053 µM
Kd [10]: 0.019 µM

B13: 6RC1IgG_019 (antibody, V domains shown)
VH: EVQLVQSGAEVKKPGSSVKVSCKASGGTFSSYAISWVRQAPGQGLEWMGGIIPIFGTANYAQKFQGRVTITADESTSTAYMELSSLRSEDTAVYYCARDRGSGFNWGNYAFDIWGQGFSVTVSS
VL: B6 VL with H50E, S53N, R91Y, S93R, L96Y
binding result [3]: binds

More lines, now with the values ahead:

binding result [4]: binds
B4: 6RpH#02 (antibody, human IgG1, kappa, V domains shown)
VH: QVQLVQSGAEVKKPGSSVKVSCKASGGTFSSYAISWVRQAPGQGLEWMGGIIPIFGTANYAQKFQGRVTITADESTSTAYMELSSLRSEDTAVYYCMINGVWEGGMDVWGQGTTVTVSS
VL: B6 VL with E30H, D31S, D32H, A34N, S53K, R91H, D92G, S93N, Y94S

binding result [3]: binds
B5: 6RC1IgG_012 (antibody, V domains shown)
VH: QVQLVQSGAEVKKPGASVKVSCKASGYTFTSYGISWVRQAPGQGLEWMGWISAYNGNTNYAQKLQGRVTMTTDTSTSTAYMELRSLRSDDTAVYYCARATYYYDSSAPAFDIWGQGTMVTVSS
VL: B6 VL with H50E, S53T, R91H, S93D, Y94S

binding result [4]: binds
B7: 6RpH#01 (antibody, human IgG1, kappa, V domains shown)
VH: EVQLVQSGAEVKKPGSSVKVSCKASGGTFSSYAISWVRQAPGQGLEWMGGIIPIFGTANYAQKFQGRVTITADESTSTAYMELSSLRSEDTAVYYCARASIYCSSTSCYEPPYYYYMDVWGKGTMVTVSS
VL: B6 VL with E30S, D31S, D32H, H50A, S53H, R91S, D92H, S93N

Kd (human FcRn [5]): 0.031 µM
B8: F1430 (antibody, IgG1, name in EU numbering)
heavy: QVQLQESGPGLVKPSETLSLTCAVSGHSISHDHAWSWVRQPPGEGLEWIGFISYSGITNYNPSLQGRVTISRDNSKNTLYLQMNSLRAEDTAVYYCARSLARTTAMDYWGEGTLVTVSSASTKGPSVFPLAPSSKSTSGGTAALGCLVKDYFPEPVTVSWNSGALTSGVHTFPAVLQSSGLYSLSSVVTVPSSSLGTQTYICNVNHKPSNTKVDKKVEPKSCDKTHTCPPCPAPELRGGPKVFLFPPKPKDTLYISREPEVTCVVVDVSHEDPEVKFNWYVDGVEVHNAKTKPREEQYNSTYRVVSKLTPLHQDWLNGKEYKCKVSNKALPAPIEKTISKAKGQPREPQVYTLPPSRDELTKNQVSLTCLVKGFYPSDIAVEWESNGQPENNYKTTPPVLDSDGSFFLYSKLTVDKSRWQQGNVFSCSVMHEALDYHVTRKELSLSP
light: not shown
notes: EU numbering; copies: 2 + 2

Kd (mouse FcRn): 0.0015 µM
binding result [6]: no binding
Kd [7]: 0.87 µM
Kd [8]: 0.14 µM
B11: Fv4-mF3 (antibody, mouse IgG1, kappa)
heavy: B9 heavy with T248Y, T252E, H429K, N430F
light: B9 light
notes: VH3-mF3 with VL3-mCK; copies: 2 + 2

Source: patent US20200115447A1 (Chugai, published 2020)
